This note sets out measurements from patent US20260345742 (published 2026).

Test [1] deals with T1, human ACE2 (human, UniProt Q9BYF1). The test can be described thus: SPR, 37C. On the technique in general: SPR reads the build-up and loss of mass on a sensor chip optically.
The target of test [2] is T1, human ACE2. The test is described as follows: SPR, 37C. The source holds these as a separate data set.
Test [3] has as its target T1, human ACE2. The test is described as follows: SPR; given as Ka.
Test [4] deals with T1, human ACE2. The test can be described thus: SPR.

Ends that are not written are not given here.

T1 sequence (Q9BYF1 18-740): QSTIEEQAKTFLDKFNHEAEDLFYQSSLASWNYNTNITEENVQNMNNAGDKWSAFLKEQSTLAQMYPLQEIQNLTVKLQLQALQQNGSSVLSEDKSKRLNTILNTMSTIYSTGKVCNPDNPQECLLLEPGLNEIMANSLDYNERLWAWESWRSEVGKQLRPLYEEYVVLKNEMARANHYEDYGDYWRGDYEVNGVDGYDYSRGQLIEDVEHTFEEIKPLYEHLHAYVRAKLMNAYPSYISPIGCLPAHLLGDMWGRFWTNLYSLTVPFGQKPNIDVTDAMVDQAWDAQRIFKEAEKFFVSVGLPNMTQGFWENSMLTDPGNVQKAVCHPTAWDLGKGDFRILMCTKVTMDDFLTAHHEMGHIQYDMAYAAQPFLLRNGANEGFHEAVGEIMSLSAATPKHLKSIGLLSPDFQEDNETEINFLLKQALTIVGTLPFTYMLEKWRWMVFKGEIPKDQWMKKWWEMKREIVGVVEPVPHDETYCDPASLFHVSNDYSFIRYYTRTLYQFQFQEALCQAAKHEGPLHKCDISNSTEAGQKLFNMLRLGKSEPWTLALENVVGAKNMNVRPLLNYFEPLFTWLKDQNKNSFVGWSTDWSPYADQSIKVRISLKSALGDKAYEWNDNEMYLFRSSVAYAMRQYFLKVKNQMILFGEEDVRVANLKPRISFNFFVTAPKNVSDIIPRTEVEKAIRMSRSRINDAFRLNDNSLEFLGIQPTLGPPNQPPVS

B1: B-YL (biotinylated) (peptide)
chain: FPIPLPYYWLYRALIKRIQALIPKGGRLLPQLVYRLVLRYS
modifications: also: biotinylated (site not given here)
In the case of B1, the Kd with human ACE2 [1] and with human ACE2 [2] was 4370 nM in each case.

B2: Super Mini-B (SMB) (peptide)
chain: FPIPLPYCWLCRALIKRIQAMIPKGGRMLPQLVCRLVLRCS
As for B2, the Kd (commonly a measure of binding affinity in units of concentration) with human ACE2 [3] was determined as 9.9 nM; with human ACE2 [4] it was 9.87 nM.
